T1: RAPGEF6, Q8TEU7
T1 sequence (Q8TEU7 525-625, limits assumed, looked up): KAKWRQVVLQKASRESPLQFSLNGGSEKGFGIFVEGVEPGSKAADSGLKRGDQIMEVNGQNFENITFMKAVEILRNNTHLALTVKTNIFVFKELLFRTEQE

T2: PDZD2_2, O15018
T2 sequence (O15018 329-429, limits assumed, looked up): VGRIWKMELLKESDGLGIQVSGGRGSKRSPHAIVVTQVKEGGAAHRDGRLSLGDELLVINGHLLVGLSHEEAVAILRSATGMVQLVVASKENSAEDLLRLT

T3: MPDZ_12, O75970
T3 sequence (O75970 1857-1958, limits assumed, looked up): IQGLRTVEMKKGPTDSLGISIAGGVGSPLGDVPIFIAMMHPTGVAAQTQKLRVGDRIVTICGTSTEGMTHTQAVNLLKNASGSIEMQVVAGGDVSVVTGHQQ

T4: MPDZ_5, O75970
T4 sequence (O75970 695-796, limits assumed, looked up): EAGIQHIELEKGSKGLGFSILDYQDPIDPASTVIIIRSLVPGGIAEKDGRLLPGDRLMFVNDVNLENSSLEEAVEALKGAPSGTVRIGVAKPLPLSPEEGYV

T5: TIAM2, Q8IVF5
T5 sequence (Q8IVF5 885-986, limits assumed, looked up): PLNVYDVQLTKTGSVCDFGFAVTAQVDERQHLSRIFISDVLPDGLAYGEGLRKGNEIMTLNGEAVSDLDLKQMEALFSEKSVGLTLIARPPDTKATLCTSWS

T6: APBA1_1, Q02410
T6 sequence (Q02410 651-752, limits assumed, looked up): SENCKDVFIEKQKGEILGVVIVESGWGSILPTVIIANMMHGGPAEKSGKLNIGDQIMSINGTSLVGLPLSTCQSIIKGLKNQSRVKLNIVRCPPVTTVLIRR

T7: RHPN1, Q8TCX5
T7 sequence (Q8TCX5 508-602, limits assumed, looked up): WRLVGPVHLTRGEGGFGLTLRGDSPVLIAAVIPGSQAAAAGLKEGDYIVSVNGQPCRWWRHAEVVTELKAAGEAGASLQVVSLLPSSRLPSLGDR

T8: GRIP1_2, Q9Y3R0
T8 sequence (Q9Y3R0 145-248, limits assumed, looked up): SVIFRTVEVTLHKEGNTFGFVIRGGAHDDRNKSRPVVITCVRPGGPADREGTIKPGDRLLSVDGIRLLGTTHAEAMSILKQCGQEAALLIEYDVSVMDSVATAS

T9: PTPN13_1, Q12923
T9 sequence (Q12923 1088-1188, limits assumed, looked up): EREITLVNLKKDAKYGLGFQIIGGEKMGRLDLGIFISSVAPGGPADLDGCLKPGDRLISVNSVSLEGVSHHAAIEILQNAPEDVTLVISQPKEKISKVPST

T10: LNX2_3, Q8N448
T10 sequence (Q8N448 463-564, limits assumed, looked up): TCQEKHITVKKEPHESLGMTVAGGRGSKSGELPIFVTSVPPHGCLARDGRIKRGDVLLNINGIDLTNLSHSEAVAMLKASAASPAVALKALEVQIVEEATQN

B1: CLDN7, O95471 (peptide)
chain: PKSNSSKEYV
B2: JAM1, Q9Y624 (peptide)
chain: EFKQTSSFLV

target: DLG2_3, Q15700; experiment: holdup assay; design: key: below the threshold = too weak to quantify, mostly under pKd 3.1 to 4; conditions: plain residues with an end cap or a label only (N-terminal biotin on a linker: ado-ado)

pKd | Binder
below the threshold | B1
3.63 | B2

target: MAGI2_2, Q86UL8; experiment: holdup assay; design: key: below the threshold = too weak to quantify, mostly under pKd 3.1 to 4; conditions: plain residues with an end cap or a label only (N-terminal biotin on a linker: ado-ado)
Sequence (Q86UL8 410-522): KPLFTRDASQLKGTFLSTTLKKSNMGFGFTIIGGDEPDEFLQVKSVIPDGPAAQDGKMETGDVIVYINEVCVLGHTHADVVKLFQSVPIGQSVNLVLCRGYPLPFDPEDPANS

pKd | Binder
below the threshold | B1
3.72 | B2

target: T1, RAPGEF6, Q8TEU7; experiment: holdup assay; design: key: below the threshold = too weak to quantify, mostly under pKd 3.1 to 4; conditions: plain residues with an end cap or a label only (N-terminal biotin on a linker: ado-ado)

pKd | Binder
below the threshold | B1
below the threshold | B2

target: T2, PDZD2_2, O15018; experiment: holdup assay; design: key: below the threshold = too weak to quantify, mostly under pKd 3.1 to 4; conditions: plain residues with an end cap or a label only (N-terminal biotin on a linker: ado-ado)

pKd | Binder
3.82 | B1
3.72 | B2

target: DLG4_1, P78352; experiment: holdup assay; design: key: below the threshold = too weak to quantify, mostly under pKd 3.1 to 4; conditions: plain residues with an end cap or a label only (N-terminal biotin on a linker: ado-ado)
Sequence (P78352 62-152): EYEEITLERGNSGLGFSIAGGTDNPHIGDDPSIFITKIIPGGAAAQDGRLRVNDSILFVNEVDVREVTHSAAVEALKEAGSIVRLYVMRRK

pKd | Binder
below the threshold | B1
below the threshold | B2

target: T3, MPDZ_12, O75970; experiment: holdup assay; design: key: below the threshold = too weak to quantify, mostly under pKd 3.1 to 4; conditions: plain residues with an end cap or a label only (N-terminal biotin on a linker: ado-ado)

pKd | Binder
below the threshold | B1
below the threshold | B2

target: HTRA2, O43464; experiment: holdup assay; design: key: below the threshold = too weak to quantify, mostly under pKd 3.1 to 4; conditions: plain residues with an end cap or a label only (N-terminal biotin on a linker: ado-ado)
Sequence (O43464 355-458): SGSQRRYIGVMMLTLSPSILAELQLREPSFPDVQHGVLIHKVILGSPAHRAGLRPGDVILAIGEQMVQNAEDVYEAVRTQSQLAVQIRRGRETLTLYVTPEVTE

pKd | Binder
below the threshold | B1
3.78 | B2

target: SNX27, Q96L92; experiment: holdup assay; design: key: below the threshold = too weak to quantify, mostly under pKd 3.1 to 4; conditions: plain residues with an end cap or a label only (N-terminal biotin on a linker: ado-ado)

pKd | Binder
below the threshold | B1
below the threshold | B2

target: MAST2, Q6P0Q8; experiment: holdup assay; design: key: below the threshold = too weak to quantify, mostly under pKd 3.1 to 4; conditions: plain residues with an end cap or a label only (N-terminal biotin on a linker: ado-ado)
Sequence (Q6P0Q8 1099-1202): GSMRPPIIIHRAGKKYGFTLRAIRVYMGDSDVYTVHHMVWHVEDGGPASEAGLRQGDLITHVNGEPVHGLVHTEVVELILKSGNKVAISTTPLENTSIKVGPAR

pKd | Binder
3.65 | B1
below the threshold | B2

target: T4, MPDZ_5, O75970; experiment: holdup assay; design: key: below the threshold = too weak to quantify, mostly under pKd 3.1 to 4; conditions: plain residues with an end cap or a label only (N-terminal biotin on a linker: ado-ado)

pKd | Binder
below the threshold | B1
below the threshold | B2

target: LAP2, Q96RT1; experiment: holdup assay; design: key: below the threshold = too weak to quantify, mostly under pKd 3.1 to 4; conditions: plain residues with an end cap or a label only (N-terminal biotin on a linker: ado-ado)
Sequence (Q96RT1 other isoform, or with tags, fused parts or gaps): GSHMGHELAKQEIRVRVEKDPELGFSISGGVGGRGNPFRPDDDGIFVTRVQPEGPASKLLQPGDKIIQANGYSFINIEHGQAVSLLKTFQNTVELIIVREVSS

pKd | Binder
below the threshold | B1
below the threshold | B2

target: PARD3_3, Q8TEW0; experiment: holdup assay; design: key: below the threshold = too weak to quantify, mostly under pKd 3.1 to 4; conditions: plain residues with an end cap or a label only (N-terminal biotin on a linker: ado-ado)
Sequence (Q8TEW0 582-685): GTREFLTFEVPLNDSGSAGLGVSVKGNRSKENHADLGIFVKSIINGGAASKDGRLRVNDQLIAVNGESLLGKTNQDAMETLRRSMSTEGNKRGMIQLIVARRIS

pKd | Binder
below the threshold | B1
3.75 | B2

target: FRMPD3, Q5JV73; experiment: holdup assay; design: key: below the threshold = too weak to quantify, mostly under pKd 3.1 to 4; conditions: plain residues with an end cap or a label only (N-terminal biotin on a linker: ado-ado)
Sequence (Q5JV73 12-100): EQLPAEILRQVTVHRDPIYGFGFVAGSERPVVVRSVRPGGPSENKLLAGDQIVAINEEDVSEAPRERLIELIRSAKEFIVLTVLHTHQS

pKd | Binder
below the threshold | B1
below the threshold | B2

target: Inadl_1, Q8NI35; experiment: holdup assay; design: key: below the threshold = too weak to quantify, mostly under pKd 3.1 to 4; conditions: plain residues with an end cap or a label only (N-terminal biotin on a linker: ado-ado)
Sequence (Q8NI35 113-229): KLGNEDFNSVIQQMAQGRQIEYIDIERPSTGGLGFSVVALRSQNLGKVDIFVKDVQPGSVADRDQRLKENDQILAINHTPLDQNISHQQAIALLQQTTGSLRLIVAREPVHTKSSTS

pKd | Binder
below the threshold | B1
below the threshold | B2

target: NOS1, P29475; experiment: holdup assay; design: key: below the threshold = too weak to quantify, mostly under pKd 3.1 to 4; conditions: plain residues with an end cap or a label only (N-terminal biotin on a linker: ado-ado)
Sequence (P29475 9-101): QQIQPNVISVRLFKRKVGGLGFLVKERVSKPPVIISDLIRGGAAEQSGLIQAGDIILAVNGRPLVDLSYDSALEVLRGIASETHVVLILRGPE

pKd | Binder
3.57 | B1
3.97 | B2

target: DLG1_1, Q12959; experiment: holdup assay; design: key: below the threshold = too weak to quantify, mostly under pKd 3.1 to 4; conditions: plain residues with an end cap or a label only (N-terminal biotin on a linker: ado-ado)

pKd | Binder
below the threshold | B1
below the threshold | B2

target: T5, TIAM2, Q8IVF5; experiment: holdup assay; design: key: below the threshold = too weak to quantify, mostly under pKd 3.1 to 4; conditions: plain residues with an end cap or a label only (N-terminal biotin on a linker: ado-ado)

pKd | Binder
below the threshold | B1
4.14 | B2

target: T6, APBA1_1, Q02410; experiment: holdup assay; design: key: below the threshold = too weak to quantify, mostly under pKd 3.1 to 4; conditions: plain residues with an end cap or a label only (N-terminal biotin on a linker: ado-ado)

pKd | Binder
below the threshold | B1
below the threshold | B2

target: T7, RHPN1, Q8TCX5; experiment: holdup assay; design: key: below the threshold = too weak to quantify, mostly under pKd 3.1 to 4; conditions: plain residues with an end cap or a label only (N-terminal biotin on a linker: ado-ado)

pKd | Binder
below the threshold | B1
below the threshold | B2

target: T8, GRIP1_2, Q9Y3R0; experiment: holdup assay; design: key: below the threshold = too weak to quantify, mostly under pKd 3.1 to 4; conditions: plain residues with an end cap or a label only (N-terminal biotin on a linker: ado-ado)

pKd | Binder
below the threshold | B1
below the threshold | B2

target: T9, PTPN13_1, Q12923; experiment: holdup assay; design: key: below the threshold = too weak to quantify, mostly under pKd 3.1 to 4; conditions: plain residues with an end cap or a label only (N-terminal biotin on a linker: ado-ado)

pKd | Binder
below the threshold | B1
below the threshold | B2

target: FRMPD2_1, Q68DX3; experiment: holdup assay; design: key: below the threshold = too weak to quantify, mostly under pKd 3.1 to 4; conditions: plain residues with an end cap or a label only (N-terminal biotin on a linker: ado-ado)
Sequence (Q68DX3 770-861): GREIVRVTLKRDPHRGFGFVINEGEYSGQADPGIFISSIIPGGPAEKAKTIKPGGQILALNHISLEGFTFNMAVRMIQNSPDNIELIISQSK

pKd | Binder
below the threshold | B1
3.75 | B2

target: NHERF4_1, Q86UT5-2; experiment: holdup assay; design: key: below the threshold = too weak to quantify, mostly under pKd 3.1 to 4; conditions: plain residues with an end cap or a label only (N-terminal biotin on a linker: ado-ado)
Sequence (Q86UT5 other isoform, or with tags, fused parts or gaps): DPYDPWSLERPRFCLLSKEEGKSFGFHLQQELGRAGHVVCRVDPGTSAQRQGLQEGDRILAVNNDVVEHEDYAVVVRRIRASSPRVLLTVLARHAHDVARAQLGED

pKd | Binder
below the threshold | B1
3.84 | B2

target: DLG4_3, P78352; experiment: holdup assay; design: key: below the threshold = too weak to quantify, mostly under pKd 3.1 to 4; conditions: plain residues with an end cap or a label only (N-terminal biotin on a linker: ado-ado)
Sequence (P78352 306-403): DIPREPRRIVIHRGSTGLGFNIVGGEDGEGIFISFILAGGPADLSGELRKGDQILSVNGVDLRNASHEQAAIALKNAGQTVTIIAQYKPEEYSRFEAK

pKd | Binder
below the threshold | B1
below the threshold | B2

target: LNX1_2, Q8TBB1; experiment: holdup assay; design: key: below the threshold = too weak to quantify, mostly under pKd 3.1 to 4; conditions: plain residues with an end cap or a label only (N-terminal biotin on a linker: ado-ado)
Sequence (Q8TBB1 371-470): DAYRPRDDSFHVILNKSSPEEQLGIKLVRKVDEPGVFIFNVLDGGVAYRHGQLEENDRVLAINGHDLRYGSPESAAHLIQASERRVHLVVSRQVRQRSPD

pKd | Binder
below the threshold | B1
4.26 | B2

target: GRIP2_3, Q9C0E4; experiment: holdup assay; design: key: below the threshold = too weak to quantify, mostly under pKd 3.1 to 4; conditions: plain residues with an end cap or a label only (N-terminal biotin on a linker: ado-ado)
Sequence (Q9C0E4 238-339): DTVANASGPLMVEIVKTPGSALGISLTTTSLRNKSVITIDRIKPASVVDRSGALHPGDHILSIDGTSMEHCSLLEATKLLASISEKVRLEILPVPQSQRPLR

pKd | Binder
below the threshold | B1
below the threshold | B2

target: T10, LNX2_3, Q8N448; experiment: holdup assay; design: key: below the threshold = too weak to quantify, mostly under pKd 3.1 to 4; conditions: plain residues with an end cap or a label only (N-terminal biotin on a linker: ado-ado)

pKd | Binder
below the threshold | B1
below the threshold | B2

target: GRIP2_7, Q9C0E4; experiment: holdup assay; design: key: below the threshold = too weak to quantify, mostly under pKd 3.1 to 4; conditions: plain residues with an end cap or a label only (N-terminal biotin on a linker: ado-ado)
Sequence (Q9C0E4 934-1023): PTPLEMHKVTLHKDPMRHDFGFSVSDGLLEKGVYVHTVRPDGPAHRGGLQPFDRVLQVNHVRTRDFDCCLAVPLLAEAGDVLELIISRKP

pKd | Binder
below the threshold | B1
3.86 | B2
